The values below come from PMC6969161, “Rad50 zinc hook functions as a constitutive dimerization module interchangeable with SMC hinge” (Nature Communications, 2020).

The target of series [1] is T1, human Rad50 (human, UniProt Q92878 1-1312).
T1 construct: Captured by the 3xFLAG tag on anti-FLAG beads, then released by PreScission cleavage, so the tag is absent in the AFM samples; Expressed with Mre11 (and Nbs1) or alone; also called Rad50-3×FLAG; R of MRN, Mre11/Rad50 and M2R2; source: Sf9, baculovirus, purified (anti-FLAG M2 beads, eluted by PreScission cleavage, HiTrapQ, Superdex 200); not shown: 3xFLAG, C-terminal, cleaved
T1 sequence (looked up): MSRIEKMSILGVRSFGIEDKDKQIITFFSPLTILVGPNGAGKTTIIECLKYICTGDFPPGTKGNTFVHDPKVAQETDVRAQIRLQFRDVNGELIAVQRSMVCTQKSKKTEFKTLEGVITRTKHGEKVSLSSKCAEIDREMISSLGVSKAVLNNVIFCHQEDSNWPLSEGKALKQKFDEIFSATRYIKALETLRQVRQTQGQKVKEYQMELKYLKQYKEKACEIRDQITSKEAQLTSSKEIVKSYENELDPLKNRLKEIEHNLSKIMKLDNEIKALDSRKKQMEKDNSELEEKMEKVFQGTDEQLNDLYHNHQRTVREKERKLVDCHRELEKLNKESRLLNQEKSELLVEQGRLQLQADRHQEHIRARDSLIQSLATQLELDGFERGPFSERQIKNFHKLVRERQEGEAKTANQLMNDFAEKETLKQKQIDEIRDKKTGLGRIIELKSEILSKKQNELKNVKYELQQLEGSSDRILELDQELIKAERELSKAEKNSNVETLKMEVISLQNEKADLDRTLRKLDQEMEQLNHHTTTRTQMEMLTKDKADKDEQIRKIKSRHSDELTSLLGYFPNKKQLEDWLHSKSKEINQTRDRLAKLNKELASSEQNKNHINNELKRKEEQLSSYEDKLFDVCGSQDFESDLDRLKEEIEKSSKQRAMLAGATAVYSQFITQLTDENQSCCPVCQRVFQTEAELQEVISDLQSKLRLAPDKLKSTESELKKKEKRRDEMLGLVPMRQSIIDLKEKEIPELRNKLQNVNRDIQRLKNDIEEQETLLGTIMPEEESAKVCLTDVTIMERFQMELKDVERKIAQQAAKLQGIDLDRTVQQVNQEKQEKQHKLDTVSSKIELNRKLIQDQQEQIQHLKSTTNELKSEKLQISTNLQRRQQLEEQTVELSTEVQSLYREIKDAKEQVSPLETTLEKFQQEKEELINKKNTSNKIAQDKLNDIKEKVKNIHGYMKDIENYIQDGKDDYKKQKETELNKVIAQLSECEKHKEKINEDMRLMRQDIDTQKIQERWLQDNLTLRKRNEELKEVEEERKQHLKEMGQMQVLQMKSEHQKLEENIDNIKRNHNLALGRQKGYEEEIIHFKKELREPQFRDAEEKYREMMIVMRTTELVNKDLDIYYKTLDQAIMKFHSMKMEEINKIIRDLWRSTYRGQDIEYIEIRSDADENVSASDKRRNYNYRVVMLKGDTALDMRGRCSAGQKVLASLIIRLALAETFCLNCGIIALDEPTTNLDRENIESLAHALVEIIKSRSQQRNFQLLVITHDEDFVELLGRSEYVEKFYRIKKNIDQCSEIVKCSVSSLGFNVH
The series can be described thus: co-purification (anti-FLAG affinity, ion exchange, size exclusion); proteins co-expressed in Sf9 cells; extract at 200 mM KCl on anti-FLAG M2 beads by Rad50-3×FLAG, eluted by PreScission cleavage, HiTrapQ; wild-type Mre11/Rad50 further on Superdex 200; molar ratio from the purified preparations. To be noted: partners not purified.

Series [2] deals with the molecule itself. The series is described as follows: high-speed AFM; purified complexes on bare mica, imaged in 25 mM Tris-HCl pH 7.5, 75 mM KCl, 3 mM MgCl2, tapping mode; with or without 1 mM ATP or ATP-γ-S.

B1: human Mre11 (natural protein, UniProt P49959 1-708, looked up)
chain: MSTADALDDENTFKILVATDIHLGFMEKDAVRGNDTFVTLDEILRLAQENEVDFILLGGDLFHENKPSRKTLHTCLELLRKYCMGDRPVQFEILSDQSVNFGFSKFPWVNYQDGNLNISIPVFSIHGNHDDPTGADALCALDILSCAGFVNHFGRSMSVEKIDISPVLLQKGSTKIALYGLGSIPDERLYRMFVNKKVTMLRPKEDENSWFNLFVIHQNRSKHGSTNFIPEQFLDDFIDLVIWGHEHECKIAPTKNEQQLFYISQPGSSVVTSLSPGEAVKKHVGLLRIKGRKMNMHKIPLHTVRQFFMEDIVLANHPDIFNPDNPKVTQAIQSFCLEKIEEMLENAERERLGNSHQPEKPLVRLRVDYSGGFEPFSVLRFSQKFVDRVANPKDIIHFFRHREQKEKTGEEINFGKLITKPSEGTTLRVEDLVKQYFQTAEKNVQLSLLTERGMGEAVQEFVDKEEKDAIEELVKYQLEKTQRFLKERHIDALEDKIDEEVRRFRETRQKNTNEEDDEVREAMTRARALRSQSEESASAFSADDLMSIDLAEQMANDSDDSISAATNKGRGRGRGRRGGRGQNSASRGGSQRGRADTGLETSTRSRNSKTAVSASRNMSIIDAFKSTRQQPSRNVTTKNYSEVIEVDESDVEEDIFPTTSKTDQRWSSTSSSKIMSQSQVSKGVDFESSEDDDDDPFMNTSSLRRNRR
notes: Mre11, human, from human MRE11 cDNA in pFASTBAC1; also called M of MRN, Mre11/Rad50 and M2R2; source: Sf9, baculovirus, co-purified with Rad50-3×FLAG (anti-FLAG M2 beads, HiTrapQ, Superdex 200)
Turning to B1, in series [1], the “stoichiometry N” value is ~1 Rad50 to Mre11, molar ratio.

B2: E. coli SbcC (natural protein)
chain: not shown
notes: SbcC (E. coli Rad50), E. coli; also called E. coli Rad50; SbcC of SbcCD; source: E. coli DL776 with plasmid pDL761, purified as SbcCD (HiTrap DEAE, ammonium precipitation, Superose 6, Mono Q)
For the molecule B2, in series [2], the binding result is “binds”.

B3: S. pombe Rad50 (natural protein, UniProt Q9UTJ8 1-1285, looked up)
chain: MSCIDRMSIMGIRSFDNRSRESIQFFSPLTLIVGQNGSGKTTIIECLKYATTGILPPNTKGGAFIHDPKICGEKEVLAQVKLAFRNTNQVKMICTRSLQLSVKKTTRQQKTLDGQLLILKDNERTTISNRCAELDSQVPLSLGVSKALLDYVIFCHQEESFWPLSEPANLKKRFDEIFESLRYAKALDQIKGLKRDQETQVKVDQATLTHYRSDKERAEKIELRVHESLKRISCIRSKVEELDQEITETARLQDELFKSTEEYEQQMITIRHLESQSDIINTTINDLKSQMTITDESSEDLEKLHSNFAEKVKEEQELYKSLEKKRSDLESLLKSRRELLEKLTGDLGKIQGEIESLEKLKVKKSTMINEIVHRYNINEINEEGIMTEVSKYASLVNKNYEISSGKLKERQVAVRARIEGIKAHEMFLNNRVSEINSSLEKQLTTQKELRSRFEILFPVKLQREDFTKDVEKSDLWIKSLRQEYESKNLLELLDKHQTALSSVENRLDEISEIVDSYHKYSGVRTKLQVFEENKTNKSAILANQLMTLKSSFSEVMSYELKDDDNYNEELDKLVEDVRKKLQEKEEAESSLRSVRERLEIRISLSVQSINDLTENKKIKTKTLKSYSGTFASMISEIKALESEIEENRKTLHSLQFGSTFYEKAIEICVDQHACQLCQRSLDKEEEKLFVEHCHSMIDVIPSKSAEVYSHLETLTKTFKNLSEAKPIFDEIELLDKRLSETKTELSDLQGDLQGLDIRKDEIQSELDTLYLRRANLEKLQLLVKDISNLEEEIRTIDRETEVLRIELPSSIAHHNLDEIYAEREKLLEKRGYLRKQIERTKLEETSFKKKIDDAVLANNEQKLKLTKLNFQVNELEQLEKDINKSSEDCDLQKKKLLEVSSKQGSQAPFLNELESEYEKLEADIQEMAQKSRTEILEANEYLHQLNEWNSELRIDVSTKFKCIKEKKSNIGEEVRIIASKIESTDDNLRKLQERLADLRTRERNASDNLRLRALMRQLEEAVTQKNYLLSQQSHDDRESFRERMQILKSKYGALNAERAGLLGECKQLENSITKDKEELNMEFKDADERFRRQLIKTKTTGKANEDLGKYAKALDVAIMQLHSMKMNEINRIVDELWKQTYCGTDIDTILIRSDSEGKGNRTYNYRVCMVKGDAELDMRGRCSAGQKVLACIIIRLALAECLGVNCGILALDEPTTNLDEENICSLAKNLSRIVEFRRKQANFQLIVITHDEQFIRLVNSDAYCSYYYRVKRDTNQKSMIVKEPL
notes: Rad50, S. pombe; The host is a wild-type strain, so endogenous Rad50 and Mre11 were also present; also called fission yeast Rad50; rad50:TEV:PA; source: S. pombe CA3, from pREP1-rad50:TEV:PA, co-purified with Mre11-3xFLAG (anti-FLAG M2 agarose, HRV3C elution, Superose 6HR)
As for B3, the binding result in series [2] is on record as “binds”.
